Assay results reported in patent publication US20150359864A1, “PHARMACEUTICAL COMPOSITION CONTAINING PEPTIDES” (ONCOTHERAPY SCIENCE, INC., priority 2012, published 2015).

Assays:
[1] = Preparation of single peptide injection preparations using sodium carbonate solution (Example 1); assay type: physicochemical; settings: for Whether injection preparation could be prepared (in words): 5 mg to 20 mg peptide in 1 ml injection solvent containing sodium carbonate; for Peptide concentration at which injection preparation could be prepared, Example 1 (Na2CO3): 41 mg sodium carbonate decahydrate in 1 ml injection solvent; for pH of injection preparation, Example 1 (Na2CO3): injection solvent containing sodium carbonate
Method: (§1) 41 mg of sodium carbonate decahydrate (Na2CO3.10H2O) was dissolved in 1 ml of an injection solvent to obtain an injection solvent containing sodium carbonate. In order to prepare formulations of the each peptide that was not dissolved in an injection solvent in Comparative Example 1, Peptides 1, 2, 4, 7, and 10 were separately added to 1 ml of injection solvents containing sodium carbonate.
In the case of Peptide 1, it was confirmed that the injection preparation could be obtained with the addition of 9 mg of peptide at the maximum. All the obtained injection preparations had pH levels within adequate range for injection (Table 2).

[2] = Combination peptide injection preparation using arginine solution (Example 4); assay type: physicochemical; set-up: key to Dissolution on successive addition, Example 4-1 (Arg) (1 mg each) / Dissolution on successive addition, Example 4-2 (Arg) (2 mg each): ◯: Dissolved; X: White Turbid; settings: for Dissolution on successive addition, Example 4-1 (Arg) (1 mg each): 1 mg each peptide added one after another to 1 ml arginine solvent; for Dissolution on successive addition, Example 4-2 (Arg) (2 mg each): 2 mg each peptide added one after another to 1 ml arginine solvent
Method: In order to prepare an injection preparation containing combination of the peptides shown in Table 1, the 10 types of peptides shown in Table 1 were added in an amount of 1 mg each to 1 ml of the injection solvent containing arginine as used in Example 2. The entire amount of one peptide was dissolved upon addition thereof to obtain a colorless and clear solution, and another peptide was then added thereto.
Subsequently, preparation of another injection preparation containing combination of the peptides was attempted in the same manner as described above, except that the amount of each peptide added was changed to 2 mg. […] Thus, no other peptides were added thereafter.

[3] = Stability of lyophilized formulation, peptide content in the vial by HPLC (Example 7); assay type: physicochemical; settings: 25 degrees C., humidity 60%, relative to comparative solution peak area = 100%
Method: 107.7 g of L-arginine and 110.4 g of sodium carbonate hydrate were dissolved in 5,500 ml of an injection solvent. Peptide 1, Peptide 2, Peptide 3, and Peptide 4 were dissolved therein in amounts of 6.2 g, 7.5 g, 8.7 g, and 8.0 g, respectively. Thereafter, the total amount of the solution was adjusted to 7,000 ml with the addition of an injection solvent, and a combination peptide solution was obtained. […] Following lyophilization, the vial was fully stoppered and the aluminum cap seaming was conducted. Thus, a lyophilized formulation was produced.
Further, the results shown above were subjected to regression analysis, so as to predict stability 24 months later.

[4] = Preparation of single peptide injection preparations using arginine solution (Example 2); assay type: physicochemical; settings: for Whether injection preparation could be prepared (in words): 5 mg to 20 mg peptide in 1 ml injection solvent containing arginine; for Peptide concentration at which injection preparation could be prepared, Example 2 (Arg): 40 mg L-arginine in 1 ml injection solvent; for pH of injection preparation, Example 2 (Arg): injection solvent containing arginine
Method: as §1, with “40” for “41”, “L-arginine” for “sodium carbonate decahydrate (Na2CO3.10H2O)”, “arginine.” for “sodium carbonate.”, “of” for “of the”
In the case of Peptide 1, it was confirmed that the injection preparation could be obtained with the addition of 6 mg of peptide at the maximum. All the obtained injection preparations had pH levels within adequate range for injection (Table 2).

[5] = Preparation of injection preparations using sodium carbonate/arginine solution (Example 3); assay type: physicochemical; settings: for Peptide concentration at which injection preparation could be prepared, Example 3 (Na2CO3/Arg): 41 mg sodium carbonate decahydrate and 40 mg L-arginine in 1 ml injection solvent; for pH of injection preparation, Example 3 (Na2CO3/Arg): injection solvent containing sodium carbonate and arginine
Method: 41 mg of sodium carbonate decahydrate and 40 mg of L-arginine were dissolved in 1 ml of an injection solvent to obtain an injection solvent containing sodium carbonate and arginine.
In the case of Peptide 3, it was confirmed that the injection preparation could be obtained with the addition of 15 mg of peptide at the maximum. All the obtained injection preparations had pH levels within adequate range for injection (Table 2).

[6] = Combination peptide injection preparation using sodium carbonate/arginine solution (Example 6); assay type: physicochemical; set-up: key to Dissolution on successive addition, Example 6 (Na2CO3/Arg) (2 mg each) / Dissolution of further 2 mg of Peptide 2, Example 6 (Na2CO3/Arg): ◯: Dissolved; X: White Turbid; settings: for Dissolution on successive addition, Example 6 (Na2CO3/Arg) (2 mg each): 2 mg each peptide added one after another to 1 ml sodium carbonate/arginine solvent
Method: (§2) In order to prepare an injection preparation containing combination of the peptides shown in Table 1, the 10 types of peptides shown in Table 1 were added in an amount of 2 mg each to 1 ml of the injection solvent containing sodium carbonate and arginine as used in Example 3. The addition of each peptide was conducted in the same manner as in Example 4.

[7] = Preparation of single peptide injection preparations using injection solvent (Comparative Example 1); settings: for Whether injection preparation could be prepared (in words): 2 mg to 20 mg peptide in 1 ml injection solvent; for Peptide concentration at which injection preparation could be prepared, Comparative Example 1 (injection solvent): injection solvent (water), room temperature, class symbol
Method: Pharmaceutical water defined by the Japanese Pharmacopoeia was used as an injection solvent.
In order to prepare formulations containing one of the peptides shown in Table 1, each of the peptides shown in Table 1 were added to 1 ml of an injection solvent. The resultants were agitated at room temperature so as to dissolve the entire amounts of the peptides added, and thereby colorless and clear solutions of each peptide were obtained. Thereafter, the peptide solutions were sterilized via filtration (with the use of a 0.22-μm filter) to obtain injection preparations.
The amounts of peptides added varied within the range of 2 mg to 20 mg, and injection preparations were prepared at each concentration. […] For these peptides, peptide concentrations that enable preparation of injection preparations were investigated.

[8] = Combination peptide injection preparation using sodium carbonate solution (Example 5); assay type: physicochemical; set-up: key to Dissolution on successive addition, Example 5 (Na2CO3) (2 mg each) / Dissolution of further 2 mg of Peptide 2, Example 5 (Na2CO3): ◯: Dissolved; X: White Turbid; settings: for Dissolution on successive addition, Example 5 (Na2CO3) (2 mg each): 2 mg each peptide added one after another to 1 ml sodium carbonate solvent
Method: as §2, with “carbonate” for “carbonate and arginine”, “1.” for “3.”

[9] = further 2 mg added after all 10 peptides (2 mg each) had dissolved

Row | Sequence | Whether injection preparation could be prepared (in words) [1] | Peptide concentration at which injection preparation could be prepared, Example 1 (Na2CO3) ([1]; class symbol) | pH of injection preparation, Example 1 (Na2CO3) [1] | Dissolution on successive addition, Example 4-1 (Arg) (1 mg each) [2] | Dissolution on successive addition, Example 4-2 (Arg) (2 mg each) [2] | Peptide content in the vial, 0 months [3] | Peptide content in the vial, 1 month [3] | Peptide content in the vial, 3 months [3] | Peptide content in the vial, 6 months [3] | Whether injection preparation could be prepared (in words) [4] | Peptide concentration at which injection preparation could be prepared, Example 2 (Arg) ([4]; class symbol) | pH of injection preparation, Example 2 (Arg) [4] | Peptide concentration at which injection preparation could be prepared, Example 3 (Na2CO3/Arg) ([5]; class symbol) | pH of injection preparation, Example 3 (Na2CO3/Arg) [5] | Dissolution on successive addition, Example 6 (Na2CO3/Arg) (2 mg each) [6] | Whether injection preparation could be prepared (in words) [7] | Peptide concentration at which injection preparation could be prepared, Comparative Example 1 (injection solvent) [7] | Dissolution on successive addition, Example 5 (Na2CO3) (2 mg each) [8] | further results
1 | EYYELFVNI (T cell epitope) [Peptide 2] | possible to prepare the injection preparations regardless of the amounts of peptides added | ⊚ (20 mg/ml or more) | 8.90 | ◯ | ◯ | 101.8% | 99.5% | 101.3% | 101.4% | possible to prepare the injection preparations regardless of the amounts of peptides added | ⊚ (20 mg/ml or more) | 9.03 | ⊚ (20 mg/ml or more) | 9.67 | ◯ | not possible to prepare the injection preparations regardless of the amounts of peptides added | X (0.08 mg/ml or less) | ◯ | Dissolution of further 2 mg of Peptide 2, Example 6 (Na2CO3/Arg) [6, 9]: ◯; Dissolution of further 2 mg (in words), Example 6 ([6]; further 2 mg after all 10 peptides (2 mg each), sodium carbonate/arginine solvent): colorless and clear solution was obtained; Dissolution of further 2 mg of Peptide 2, Example 5 (Na2CO3) [8, 9]: X; Dissolution of further 2 mg (in words), Example 5 ([8]; further 2 mg after all 10 peptides (2 mg each), sodium carbonate solvent): white turbidity
2 | SYGVLLWEI (T cell epitope) [Peptide 1] | – | – | (9.85) | ◯ | ◯ | 101.0% | 98.7% | 98.9% | 98.6% | – | – | (10.17) | – | (10.41) | ◯ | not possible to prepare the injection preparations regardless of the amounts of peptides added | X (0.08 mg/ml or less) | ◯ | Peptide concentration at which injection preparation could be prepared, Example 1 (Na2CO3) ([1]; numeric): 9 mg/mL; Maximum amount of peptide added that gave an injection preparation ([1]; in 1 ml injection solvent containing sodium carbonate): 9 mg; Peptide concentration at which injection preparation could be prepared, Example 2 (Arg) ([4]; numeric): 6 mg/mL; Maximum amount of peptide added that gave an injection preparation ([4]; in 1 ml injection solvent containing arginine): 6 mg; Peptide concentration at which injection preparation could be prepared, Example 3 (Na2CO3/Arg) ([5]; numeric): 10 mg/mL
3 | IYTWIEDHF (T cell epitope) [Peptide 4] | possible to prepare the injection preparations regardless of the amounts of peptides added | ⊚ (20 mg/ml or more) | 8.88 | ◯ | – | 101.2% | 99.6% | 99.4% | 99.5% | possible to prepare the injection preparations regardless of the amounts of peptides added | ⊚ (20 mg/ml or more) | 8.95 | ⊚ (20 mg/ml or more) | 9.69 | ◯ | not possible to prepare the injection preparations regardless of the amounts of peptides added | X (0.08 mg/ml or less) | ◯ | –
